Assay results taken from publication PMC11885566.

Biological target: stable soluble Omicron EG.5.1 (6P) S trimer (SARS-CoV-2)
Assay: cryo-EM structure

“stable soluble Omicron EG.5.1 (6P) S trimer (domain or fragment)” gave a stoichiometry N of 3.
